Results on 1 molecule are retold here after article PMC9838878 (Science (New York, N.Y.), 2022).

This assay has as its target recombinant KIT-extracellular domain-Fc fragment fusion protein (KIT-ECD-Fc) (human, UniProt P10721 26-524). The experiment in a line: MST.

Sequence of recombinant KIT-extracellular domain-Fc fragment fusion protein (KIT-ECD-Fc) (P10721 26-524): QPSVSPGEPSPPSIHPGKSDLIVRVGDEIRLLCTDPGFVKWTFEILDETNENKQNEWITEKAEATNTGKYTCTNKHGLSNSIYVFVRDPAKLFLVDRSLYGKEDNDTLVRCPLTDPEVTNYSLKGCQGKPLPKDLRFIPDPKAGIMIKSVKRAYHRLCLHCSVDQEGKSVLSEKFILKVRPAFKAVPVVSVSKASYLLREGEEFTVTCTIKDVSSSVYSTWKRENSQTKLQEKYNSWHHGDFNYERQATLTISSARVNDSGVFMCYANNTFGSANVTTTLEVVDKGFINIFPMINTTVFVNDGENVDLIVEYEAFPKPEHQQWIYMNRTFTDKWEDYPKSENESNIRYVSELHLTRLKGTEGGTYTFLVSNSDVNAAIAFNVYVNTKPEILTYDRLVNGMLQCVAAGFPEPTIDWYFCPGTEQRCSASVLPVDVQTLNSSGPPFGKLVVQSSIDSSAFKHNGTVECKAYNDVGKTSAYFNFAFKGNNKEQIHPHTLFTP

B1: meteorin-like (METRNL), protein added as ligand (ligand, human, UniProt Q641Q3 46-311, looked up)
chain: QYSSDRCSWKGSGLTHEAHRKEVEQVYLRCAAGAVEWMYPTGALIVNLRPNTFSPARHLTVCIRSFTDSSGANIYLEKTGELRLLVPDGDGRPGRVQCFGLEQGGLFVEATPQQDIGRRTTGFQYELVRRHRASDLHELSAPCRPCSDTEVLLAVCTSDFAVRGSIQQVTHEPERQDSAIHLRVSRLYRQKSRVFEPVPEGDGHWQGRVRTLLECGVRPGHGDFLFTGHMHFGEARLGCAPRFKDFQRMYRDAQERGLNPCEVGTD
Regarding B1, the binding result is listed as “binds”.
